Test results reported in publication PMC6555819, “Comprehensive study of nuclear receptor DNA binding provides a revised framework for understanding receptor specificity”.
Substitutions are numbered along the chain they refer to.

B1: NRC3_random_hg19_397_o1 (dsDNA)
DNA 1: GCGGTGTCGTGTGCCTGTGATCCCAGCTACGCAGGCGCGATTGACAGCGTAGAATGAAGG
DNA 2: CCTTCATTCTACGCTGTCAATCGCGCCTGCGTAGCTGGGATCACAGGCACACGACACCGC
B2: NRC3_wobSeed120_DR4_G20A_o1 (dsDNA)
DNA 1: GCCCGAGTAGGTTACGAGGAGGCATTCAGTGCGAATGCGATTGACAGCGTAGAATGAAGG
DNA 2: CCTTCATTCTACGCTGTCAATCGCATTCGCACTGAATGCCTCCTCGTAACCTACTCGGGC
B3: NRC3_wobSeed13_DR0_G21C_o1 (dsDNA)
DNA 1: GCCGTCCAAGGTCAAGGTCACTGAAAGAGACTCGAAGCGATTGACAGCGTAGAATGAAGG
DNA 2: CCTTCATTCTACGCTGTCAATCGCTTCGAGTCTCTTTCAGTGACCTTGACCTTGGACGGC
B4: NRC3_wobSeed37_DR1_T23G_o1 (dsDNA)
DNA 1: GCCGTCCAAGGTCAAAGGTCAGGGAAGAGATGACGGGCGATTGACAGCGTAGAATGAAGG
DNA 2: CCTTCATTCTACGCTGTCAATCGCCCGTCATCTCTTCCCTGACCTTTGACCTTGGACGGC
B5: NRC3_wobSeed37_DR1_G22A_o1 (dsDNA)
DNA 1: B4 DNA 1 with G22A, G23T
DNA 2: B4 DNA 2 with C38A, C39T
B6: NRC3_wobSeed109_DR4_G25A_o1 (dsDNA)
DNA 1: GCCGTCCAAGGTCATAGGAGGTCAATGAAGACAGATGCGATTGACAGCGTAGAATGAAGG
DNA 2: CCTTCATTCTACGCTGTCAATCGCATCTGTCTTCATTGACCTCCTATGACCTTGGACGGC
B7: NRC3_random_hg19_113_o1 (dsDNA)
DNA 1: GCGAGATTCCAGATGAGAACTGCTCAGCCAAACTCTGCGATTGACAGCGTAGAATGAAGG
DNA 2: CCTTCATTCTACGCTGTCAATCGCAGAGTTTGGCTGAGCAGTTCTCATCTGGAATCTCGC
B8: NRC3_wobSeed133_DR5_T19A_o1 (dsDNA)
DNA 1: GCCGTCCAAGGTCAATGCAAGGTCAGTGAAAGCATTGCGATTGACAGCGTAGAATGAAGG
DNA 2: CCTTCATTCTACGCTGTCAATCGCAATGCTTTCACTGACCTTGCATTGACCTTGGACGGC
B9: NRC3_random_hg19_222_o1 (dsDNA)
DNA 1: GCGAAGCATTCTAAGAAACTTCTTCGTGATGTGTGTGCGATTGACAGCGTAGAATGAAGG
DNA 2: CCTTCATTCTACGCTGTCAATCGCACACACATCACGAAGAAGTTTCTTAGAATGCTTCGC
B10: NRC3_random_hg19_10_o1 (dsDNA)
DNA 1: GCAGCCTCCTGTTGGGTGGTCTGGTCCACCTCCTCAGCGATTGACAGCGTAGAATGAAGG
DNA 2: CCTTCATTCTACGCTGTCAATCGCTGAGGAGGTGGACCAGACCACCCAACAGGAGGCTGC
B11: NRC3_random_hg19_121_o1 (dsDNA)
DNA 1: GCGCAGTAGGCACAGGGACTGTGTACAGATCTACACGCGATTGACAGCGTAGAATGAAGG
DNA 2: CCTTCATTCTACGCTGTCAATCGCGTGTAGATCTGTACACAGTCCCTGTGCCTACTGCGC
B12: NRC3_wobSeed141_DR5_T11G_o1 (dsDNA)
DNA 1: GCAGTCAAAGGTCAGGACGAGGTAACGTAAAGCACGGCGATTGACAGCGTAGAATGAAGG
DNA 2: CCTTCATTCTACGCTGTCAATCGCCGTGCTTTACGTTACCTCGTCCTGACCTTTGACTGC
B13: NRC3_random_hg19_74_o1 (dsDNA)
DNA 1: GCAGAACAGCTGAGTGGCTCAAGACCGCAGAGGAACGCGATTGACAGCGTAGAATGAAGG
DNA 2: CCTTCATTCTACGCTGTCAATCGCGTTCCTCTGCGGTCTTGAGCCACTCAGCTGTTCTGC
B14: NRC3_random_hg19_406_o1 (dsDNA)
DNA 1: GCGAAGAACCTCCAAACTGTTCTCCATGGTAGTTGTGCGATTGACAGCGTAGAATGAAGG
DNA 2: CCTTCATTCTACGCTGTCAATCGCACAACTACCATGGAGAACAGTTTGGAGGTTCTTCGC
B15: NRC3_wobSeed101_DR4_C18A_o1 (dsDNA)
DNA 1: GCCCTTACGGGTCACTCAAGGTTATAGCATCGGAGTGCGATTGACAGCGTAGAATGAAGG
DNA 2: CCTTCATTCTACGCTGTCAATCGCACTCCGATGCTATAACCTTGAGTGACCCGTAAGGGC
B16: NRC3_random_hg19_16_o1 (dsDNA)
DNA 1: GCGTTGTATCGTGTTATGTATGAGAGTCAGGATCTTGCGATTGACAGCGTAGAATGAAGG
DNA 2: CCTTCATTCTACGCTGTCAATCGCAAGATCCTGACTCTCATACATAACACGATACAACGC
B17: NRC3_random_hg19_371_o1 (dsDNA)
DNA 1: GCTTAAGGATGGACCATTGGCTAAAGCAATGTCAAAGCGATTGACAGCGTAGAATGAAGG
DNA 2: CCTTCATTCTACGCTGTCAATCGCTTTGACATTGCTTTAGCCAATGGTCCATCCTTAAGC
B18: NRC3_random_hg19_180_o1 (dsDNA)
DNA 1: GCCAAGATAACCAGCTTATCTATCAGTTGGAGCAGAGCGATTGACAGCGTAGAATGAAGG
DNA 2: CCTTCATTCTACGCTGTCAATCGCTCTGCTCCAACTGATAGATAAGCTGGTTATCTTGGC
B19: NRC3_wobSeed114_DR4_G17T_o1 (dsDNA)
DNA 1: GCAATACAGGGTCATCTTAGGCCAGAGTACGCACAGGCGATTGACAGCGTAGAATGAAGG
DNA 2: CCTTCATTCTACGCTGTCAATCGCCTGTGCGTACTCTGGCCTAAGATGACCCTGTATTGC
B20: NRC3_wobSeed103_DR4_G23C_o1 (dsDNA)
DNA 1: GCGCATATAGGTAATACAAGGTCAAAGTCCGATTGTGCGATTGACAGCGTAGAATGAAGG
DNA 2: CCTTCATTCTACGCTGTCAATCGCACAATCGGACTTTGACCTTGTATTACCTATATGCGC
B21: NRC3_wobSeed109_DR4_G17T_o1 (dsDNA)
DNA 1: B6 DNA 1 with G17T, A25G
DNA 2: B6 DNA 2 with T36C, C44A
B22: NRC3_random_hg19_173_o1 (dsDNA)
DNA 1: GCATCCACCACCATGCAGAGGCAAGAATGGTCAGGCGCGATTGACAGCGTAGAATGAAGG
DNA 2: CCTTCATTCTACGCTGTCAATCGCGCCTGACCATTCTTGCCTCTGCATGGTGGTGGATGC

target: VDR:RXRa (Homo sapiens, UniProt P11473;P19793 full;full); experiment: no ligand; PBM; 270 nM : 90 nM RXRa; PBS pH 7.4, 2% milk, 0.02% Triton X-100, 1 mM DTT, BSA, 0.4 mg/ml salmon testes DNA; settings: tags: His kept;His cleaved; copies: 1;1; label: surface-attached array probe
Outline: (§1)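 Ligand-free nuclear receptor dimers were bound for 1 h to custom Agilent 4×180K protein-binding microarrays. Detection used antibodies against each partner (one per run). Binding z-scores rest on regression-normalized fluorescence, with random background probes as the reference.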

VDR:RXRa, sequence (P11473 whole entry, chain 1 of 2): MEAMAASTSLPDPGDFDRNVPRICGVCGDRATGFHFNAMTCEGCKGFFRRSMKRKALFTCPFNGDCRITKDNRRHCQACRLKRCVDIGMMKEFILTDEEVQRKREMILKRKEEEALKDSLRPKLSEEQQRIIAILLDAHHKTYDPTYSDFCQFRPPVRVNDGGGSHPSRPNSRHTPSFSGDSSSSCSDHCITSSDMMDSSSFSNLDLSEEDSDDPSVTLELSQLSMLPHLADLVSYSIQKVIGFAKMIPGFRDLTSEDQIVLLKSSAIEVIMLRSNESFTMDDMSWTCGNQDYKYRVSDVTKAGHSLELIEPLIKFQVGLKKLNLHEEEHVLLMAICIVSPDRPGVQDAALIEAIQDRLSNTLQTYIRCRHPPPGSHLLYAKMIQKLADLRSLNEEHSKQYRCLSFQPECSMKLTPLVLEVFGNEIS
VDR:RXRa, sequence (P19793 whole entry, chain 2 of 2): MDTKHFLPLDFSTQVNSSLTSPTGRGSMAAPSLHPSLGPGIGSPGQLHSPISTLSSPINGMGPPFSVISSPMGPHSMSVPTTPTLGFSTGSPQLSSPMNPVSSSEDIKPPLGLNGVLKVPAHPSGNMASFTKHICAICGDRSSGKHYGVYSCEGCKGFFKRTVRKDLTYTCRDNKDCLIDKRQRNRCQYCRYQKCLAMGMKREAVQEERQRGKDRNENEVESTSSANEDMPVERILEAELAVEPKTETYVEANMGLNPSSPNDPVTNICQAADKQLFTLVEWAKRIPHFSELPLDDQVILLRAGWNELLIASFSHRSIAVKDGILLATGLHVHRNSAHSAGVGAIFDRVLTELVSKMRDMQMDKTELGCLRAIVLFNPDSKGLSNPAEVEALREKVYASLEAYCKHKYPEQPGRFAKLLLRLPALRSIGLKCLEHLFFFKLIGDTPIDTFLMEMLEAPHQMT

Row | Binder | binding signal
1 | B1 | -0.31 PBM z-score against 500 random probes
2 | B2 | 0.09 PBM z-score against 500 random probes

target: PPARa:RXRa (Homo sapiens, UniProt Q07869;P19793 full;full); experiment: as above; settings: tags: GST kept;His cleaved; copies: 1;1; label: surface-attached array probe
Outline: as §1

PPARa:RXRa, sequence (Q07869 whole entry, chain 1 of 2): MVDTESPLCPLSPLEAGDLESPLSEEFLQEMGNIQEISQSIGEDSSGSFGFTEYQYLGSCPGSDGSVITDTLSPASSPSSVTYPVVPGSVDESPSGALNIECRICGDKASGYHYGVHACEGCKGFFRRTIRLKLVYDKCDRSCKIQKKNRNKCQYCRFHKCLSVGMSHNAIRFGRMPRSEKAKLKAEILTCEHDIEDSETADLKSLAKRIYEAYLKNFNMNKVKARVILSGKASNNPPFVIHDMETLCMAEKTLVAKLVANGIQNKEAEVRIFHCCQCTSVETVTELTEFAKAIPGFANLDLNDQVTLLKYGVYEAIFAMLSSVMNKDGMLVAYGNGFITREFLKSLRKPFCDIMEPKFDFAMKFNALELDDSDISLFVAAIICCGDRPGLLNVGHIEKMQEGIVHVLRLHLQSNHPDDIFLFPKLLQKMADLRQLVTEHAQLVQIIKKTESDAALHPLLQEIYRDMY
PPARa:RXRa, sequence (P19793 whole entry, chain 2 of 2): as the sequence (P19793 whole entry, chain 2 of 2) above

Row | Binder | binding signal
3 | B3 | 6.7 PBM z-score against 500 random probes
4 | B4 | 7.45 PBM z-score against 500 random probes
5 | B5 | 7.52 PBM z-score against 500 random probes
6 | B6 | 6.49 PBM z-score against 500 random probes
7 | B7 | -0.69 PBM z-score against 500 random probes

target: RARb:RXRa (Homo sapiens, UniProt P10826;P19793 full;full); experiment: as above; settings: tags: His kept;His cleaved; copies: 1;1; label: surface-attached array probe
Outline: as §1

RARb:RXRa, sequence (P10826 whole entry, chain 1 of 2): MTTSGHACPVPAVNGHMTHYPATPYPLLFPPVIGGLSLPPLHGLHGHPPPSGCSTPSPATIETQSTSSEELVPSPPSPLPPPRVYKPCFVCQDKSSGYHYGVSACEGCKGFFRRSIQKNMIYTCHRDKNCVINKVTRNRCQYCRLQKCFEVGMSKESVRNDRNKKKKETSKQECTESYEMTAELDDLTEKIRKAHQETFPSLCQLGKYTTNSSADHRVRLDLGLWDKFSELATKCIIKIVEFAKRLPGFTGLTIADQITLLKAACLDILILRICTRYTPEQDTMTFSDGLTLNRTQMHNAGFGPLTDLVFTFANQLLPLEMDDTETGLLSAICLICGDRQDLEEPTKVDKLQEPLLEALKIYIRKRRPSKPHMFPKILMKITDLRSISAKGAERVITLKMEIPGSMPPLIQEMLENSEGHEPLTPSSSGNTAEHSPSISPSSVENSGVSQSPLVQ
RARb:RXRa, sequence (P19793 whole entry, chain 2 of 2): as the sequence (P19793 whole entry, chain 2 of 2) above

Row | Binder | binding signal
8 | B3 | 5.97 PBM z-score against 500 random probes
9 | B8 | 5.87 PBM z-score against 500 random probes
10 | B9 | -1.15 PBM z-score against 500 random probes
11 | B10 | -0.72 PBM z-score against 500 random probes
12 | B11 | -1.18 PBM z-score against 500 random probes
13 | B1 | 0.07 PBM z-score against 500 random probes
14 | B4 | 6.26 PBM z-score against 500 random probes
15 | B12 | 5.96 PBM z-score against 500 random probes
16 | B13 | -1.89 PBM z-score against 500 random probes
17 | B6 | 5.71 PBM z-score against 500 random probes
18 | B7 | -0.57 PBM z-score against 500 random probes

target: RARg:RXRa (Homo sapiens, UniProt P13631;P19793 full;full); experiment: as above; settings: tags: His kept;His cleaved; copies: 1;1; label: surface-attached array probe
Outline: as §1

RARg:RXRa, sequence (P13631 whole entry, chain 1 of 2): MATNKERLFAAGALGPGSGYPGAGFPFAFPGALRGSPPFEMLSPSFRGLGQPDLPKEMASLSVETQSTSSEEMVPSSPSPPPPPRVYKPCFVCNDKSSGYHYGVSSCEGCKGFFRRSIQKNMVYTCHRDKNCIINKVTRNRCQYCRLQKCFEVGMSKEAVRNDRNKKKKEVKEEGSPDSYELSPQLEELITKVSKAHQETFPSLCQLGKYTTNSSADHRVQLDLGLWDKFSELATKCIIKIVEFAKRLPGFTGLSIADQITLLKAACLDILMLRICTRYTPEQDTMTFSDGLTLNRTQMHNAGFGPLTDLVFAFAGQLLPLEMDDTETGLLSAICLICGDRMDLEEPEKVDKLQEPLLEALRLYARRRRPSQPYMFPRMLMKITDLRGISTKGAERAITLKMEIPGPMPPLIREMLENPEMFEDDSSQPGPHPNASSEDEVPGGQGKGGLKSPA
RARg:RXRa, sequence (P19793 whole entry, chain 2 of 2): as the sequence (P19793 whole entry, chain 2 of 2) above

Row | Binder | binding signal
19 | B3 | 7.34 PBM z-score against 500 random probes
20 | B8 | 8.21 PBM z-score against 500 random probes
21 | B9 | -0.49 PBM z-score against 500 random probes
22 | B10 | -1.37 PBM z-score against 500 random probes
23 | B5 | 9.11 PBM z-score against 500 random probes
24 | B12 | 7.48 PBM z-score against 500 random probes
25 | B14 | -0.45 PBM z-score against 500 random probes

target: LXRb:RXRa (Homo sapiens, UniProt P55055;P19793 full;full); experiment: as above; settings: tags: His kept;His cleaved; copies: 1;1; label: surface-attached array probe
Outline: as §1

LXRb:RXRa, sequence (P55055 whole entry, chain 1 of 2): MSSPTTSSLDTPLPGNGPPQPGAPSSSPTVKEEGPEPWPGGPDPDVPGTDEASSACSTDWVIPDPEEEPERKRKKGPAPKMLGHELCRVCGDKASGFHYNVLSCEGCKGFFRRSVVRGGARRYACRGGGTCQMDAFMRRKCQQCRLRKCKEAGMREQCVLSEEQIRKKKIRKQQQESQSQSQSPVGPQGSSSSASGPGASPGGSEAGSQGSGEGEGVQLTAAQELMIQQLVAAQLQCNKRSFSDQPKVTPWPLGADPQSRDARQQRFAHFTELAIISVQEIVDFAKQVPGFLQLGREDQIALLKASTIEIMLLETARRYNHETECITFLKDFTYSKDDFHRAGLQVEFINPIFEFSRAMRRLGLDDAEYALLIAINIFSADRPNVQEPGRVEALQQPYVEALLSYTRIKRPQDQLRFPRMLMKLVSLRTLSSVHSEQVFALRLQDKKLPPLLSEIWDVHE
LXRb:RXRa, sequence (P19793 whole entry, chain 2 of 2): as the sequence (P19793 whole entry, chain 2 of 2) above

Row | Binder | binding signal
26 | B15 | 6.18 PBM z-score against 500 random probes
27 | B16 | 0.41 PBM z-score against 500 random probes
28 | B17 | -0.56 PBM z-score against 500 random probes
29 | B5 | 7.29 PBM z-score against 500 random probes
30 | B18 | -0.9 PBM z-score against 500 random probes
31 | B6 | 7.06 PBM z-score against 500 random probes

target: FXR:RXRa (Homo sapiens, UniProt Q96RI1;P19793 full;full); experiment: as above; settings: tags: His kept;His cleaved; copies: 1;1; label: surface-attached array probe
Outline: as §1

FXR:RXRa, sequence (Q96RI1 whole entry, chain 1 of 2): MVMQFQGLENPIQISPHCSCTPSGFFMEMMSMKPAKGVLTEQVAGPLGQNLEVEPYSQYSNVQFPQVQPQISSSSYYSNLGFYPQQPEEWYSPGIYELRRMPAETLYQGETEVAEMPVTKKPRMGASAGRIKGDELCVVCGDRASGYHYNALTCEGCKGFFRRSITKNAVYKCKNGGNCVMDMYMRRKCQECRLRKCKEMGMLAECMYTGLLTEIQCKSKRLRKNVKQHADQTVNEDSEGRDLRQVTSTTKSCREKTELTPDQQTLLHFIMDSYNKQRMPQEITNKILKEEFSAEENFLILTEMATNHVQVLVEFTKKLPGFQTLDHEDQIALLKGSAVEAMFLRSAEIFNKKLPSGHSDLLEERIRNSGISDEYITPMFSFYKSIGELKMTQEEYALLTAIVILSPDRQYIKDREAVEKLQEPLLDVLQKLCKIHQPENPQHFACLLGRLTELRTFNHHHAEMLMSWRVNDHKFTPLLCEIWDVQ
FXR:RXRa, sequence (P19793 whole entry, chain 2 of 2): as the sequence (P19793 whole entry, chain 2 of 2) above

Row | Binder | binding signal
32 | B10 | -0.8 PBM z-score against 500 random probes
33 | B14 | -0.19 PBM z-score against 500 random probes

target: LXRa:RXRa (Homo sapiens, UniProt Q13133;P19793 full;full); experiment: as above; settings: tags: His kept;His cleaved; copies: 1;1; label: surface-attached array probe
Outline: as §1

LXRa:RXRa, sequence (Q13133 whole entry, chain 1 of 2): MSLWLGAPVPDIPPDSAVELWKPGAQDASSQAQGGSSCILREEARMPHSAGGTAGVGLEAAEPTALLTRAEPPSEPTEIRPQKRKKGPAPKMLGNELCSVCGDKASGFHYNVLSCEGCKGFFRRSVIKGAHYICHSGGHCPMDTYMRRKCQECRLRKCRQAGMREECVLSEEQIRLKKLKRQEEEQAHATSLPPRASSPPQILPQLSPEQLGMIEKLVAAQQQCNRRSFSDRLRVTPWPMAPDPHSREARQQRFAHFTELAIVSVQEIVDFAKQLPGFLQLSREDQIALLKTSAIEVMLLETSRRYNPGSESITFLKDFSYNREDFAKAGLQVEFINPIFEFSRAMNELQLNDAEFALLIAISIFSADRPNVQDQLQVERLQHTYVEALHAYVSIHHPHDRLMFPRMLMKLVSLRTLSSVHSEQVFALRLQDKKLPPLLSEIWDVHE
LXRa:RXRa, sequence (P19793 whole entry, chain 2 of 2): as the sequence (P19793 whole entry, chain 2 of 2) above

Row | Binder | binding signal
34 | B19 | 7.35 PBM z-score against 500 random probes
35 | B20 | 7 PBM z-score against 500 random probes
36 | B21 | 7.97 PBM z-score against 500 random probes

target: THRa:RXRa (Homo sapiens, UniProt P10827;P19793 full;full); experiment: no ligand; PBM; 90 nM : 90 nM RXRa; PBS pH 7.4, 2% milk, 0.02% Triton X-100, 1 mM DTT, BSA, 0.4 mg/ml salmon testes DNA; settings: tags: His kept;His cleaved; copies: 1;1; label: surface-attached array probe
Sequence (P10827 other isoform, or with tags, fused parts or gaps, chain 1 of 2): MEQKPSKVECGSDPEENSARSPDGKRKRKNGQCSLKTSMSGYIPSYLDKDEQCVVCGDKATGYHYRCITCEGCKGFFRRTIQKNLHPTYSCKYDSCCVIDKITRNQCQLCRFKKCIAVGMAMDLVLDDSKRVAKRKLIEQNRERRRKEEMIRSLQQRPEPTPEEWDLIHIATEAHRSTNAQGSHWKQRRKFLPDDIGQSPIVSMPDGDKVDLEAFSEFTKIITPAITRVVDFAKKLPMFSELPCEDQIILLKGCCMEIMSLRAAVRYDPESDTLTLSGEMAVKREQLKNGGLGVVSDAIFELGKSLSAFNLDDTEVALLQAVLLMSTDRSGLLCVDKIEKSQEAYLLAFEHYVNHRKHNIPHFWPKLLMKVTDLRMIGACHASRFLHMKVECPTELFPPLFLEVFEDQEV
Sequence (P19793 whole entry, chain 2 of 2): as the sequence (P19793 whole entry, chain 2 of 2) above

Row | Binder | binding signal
37 | B3 | 4.85 PBM z-score against 500 random probes
38 | B8 | 5 PBM z-score against 500 random probes
39 | B19 | 5.49 PBM z-score against 500 random probes
40 | B15 | 5.41 PBM z-score against 500 random probes
41 | B16 | 0.16 PBM z-score against 500 random probes
42 | B9 | -0.74 PBM z-score against 500 random probes
43 | B17 | -0.29 PBM z-score against 500 random probes
44 | B10 | -1.74 PBM z-score against 500 random probes
45 | B11 | -2.89 PBM z-score against 500 random probes
46 | B1 | -0.32 PBM z-score against 500 random probes
47 | B4 | 5.23 PBM z-score against 500 random probes
48 | B5 | 5.12 PBM z-score against 500 random probes
49 | B2 | 0.17 PBM z-score against 500 random probes
50 | B20 | 4.92 PBM z-score against 500 random probes
51 | B18 | -0.68 PBM z-score against 500 random probes
52 | B12 | 4.79 PBM z-score against 500 random probes
53 | B22 | 0.01 PBM z-score against 500 random probes
54 | B14 | -0.25 PBM z-score against 500 random probes
55 | B13 | -0.75 PBM z-score against 500 random probes
56 | B6 | 5.65 PBM z-score against 500 random probes
57 | B21 | 5.58 PBM z-score against 500 random probes
58 | B7 | -0.47 PBM z-score against 500 random probes

target: RXRa (Homo sapiens, UniProt P19793); experiment: no ligand; PBM; 180 nM; PBS pH 7.4, 2% milk, 0.02% Triton X-100, 1 mM DTT, BSA, 0.4 mg/ml salmon testes DNA; settings: tags: His cleaved; chain copies: 2; label: surface-attached array probe
Sequence (P19793 whole entry): as the sequence (P19793 whole entry, chain 2 of 2) above

Row | Binder | binding signal
59 | B3 | 7.81 PBM z-score against 500 random probes
60 | B10 | -1.64 PBM z-score against 500 random probes
61 | B1 | -0.17 PBM z-score against 500 random probes
62 | B5 | 10.7 PBM z-score against 500 random probes
63 | B22 | 0.16 PBM z-score against 500 random probes
64 | B14 | -0.04 PBM z-score against 500 random probes
